# Source: PMC8138769
# Legend:
# [1] = target: Ly49C natural killer domain (NKD), high-affinity mutant (V141K, S171G, E193G, R223K) (murine); test: ITC
# [2] = target: Ly49C natural killer domain (NKD), high-affinity mutant (V141K, S171G, E193G, R223K) (murine); test: AUC; sedimentation velocity, 20 °C, absorbance optics, 40,000 rpm; 4.2 μM Ly49C NKD, 3.7 μM peptide/MHC complex, and a mixture of the two; 10 mM HEPES pH 7.4, 150 mM NaCl, 3 mM EDTA, 0.005% surfactant P20
# [3] = target: H-2K^b (heavy chain with murine β2-microglobulin) (mouse | murine)
Substance,Kd [1],dH [1],stoichiometry N [1],stoichiometry N [2],apparent Tm of the peptide/H-2K^b complex by differential scanning fluorimetry [3]
H-2K^b in complex with the ovalbumin peptide (OVA; SIINFEKL) (from UniProt P01887) (peptide-MHC),1.9 µM,2 kcal/mol,1,,
H-2K^b presenting the MMTV gp70 peptide (MMTV; ANYDFICV) (from UniProt P01887 21-119) (peptide-MHC),8 µM,2.3 kcal/mol,1,,
"Ly49C natural killer domain (NKD), high-affinity mutant (V141K, S171G, E193G, R223K) (domain or fragment)",,,,2,
MMTV gp70 peptide (MMTV; ANYDFICV),,,,,54 °C
ovalbumin peptide (OVA; SIINFEKL),,,,,58 °C
